Test [1] addresses NCP-601 (nucleosome core particle with H3K9me3 and a single hemimethylated CpG site within the 3′-Widom 601 sequence) (human) (UniProt P04908). Kind of test: mass photometry; UHRF1 and NCP mixed at a UHRF1–NCP ratio of 1:4, on ice 30 min; final 25 nM in 20 mM Tris–HCl pH 7.0, 150 mM NaCl.
In test [2] the target is NCP-5′linker (nucleosome core particle with H3K9me3 and a single hemimethylated CpG site in the 5′-linker DNA) (human) (UniProt P04908). The test is described as above.
Test [3] concerns the target NCP-3′linker (nucleosome core particle with H3K9me3 and a single hemimethylated CpG site in the 3′-linker DNA) (human) (UniProt P04908). Described as above.
Test [4] concerns the target NCP-601 (nucleosome core particle with H3K9me3 and a single hemimethylated CpG site within the 3′-Widom 601 sequence) (human) (UniProt P04908). Nature of the test: thermal stability assay (SYPRO Orange); 0.2 mg/ml protein; 20 mM Tris–HCl pH 7.5, 150 mM NaCl, 1 mM DTT; heated from 25 °C to 90 °C.
In test [5] the target is NCP-5′linker (nucleosome core particle with H3K9me3 and a single hemimethylated CpG site in the 5′-linker DNA) (human) (UniProt P04908). Described as above.
In test [6] the target is NCP-3′linker (nucleosome core particle with H3K9me3 and a single hemimethylated CpG site in the 3′-linker DNA) (human) (UniProt P04908). Described as above.

With “UHRF1 (ubiquitin-like with plant homeodomain and RING finger domain 1), full-length human, WT (from UniProt Q96T88 1-793) (enzyme)”, the stoichiometry N in test [1], in test [2] and in test [3] was 1 throughout. Further, the Tm (denaturation temperature of UHRF1 bound to the NCP) is 42.8 °C in test [4], 44.2 °C in test [5] and 44.8 °C in test [6].

Source of the values: publication PMC12704277.
